From article PMC5828395 (Genes & Development, 2018)
Where no end group is shown, it is not given here.

Assays:
[1] = biological target: GAS41 YEATS domain (amino acids 15–159) (human) (UniProt O95619); test: ITC
[2] = biological target: GAS41 YEATS domain (amino acids 15–159) (human, UniProt O95619 15-159); test: ITC
Sequence of GAS41 YEATS domain (amino acids 15–159) (O95619 15-159): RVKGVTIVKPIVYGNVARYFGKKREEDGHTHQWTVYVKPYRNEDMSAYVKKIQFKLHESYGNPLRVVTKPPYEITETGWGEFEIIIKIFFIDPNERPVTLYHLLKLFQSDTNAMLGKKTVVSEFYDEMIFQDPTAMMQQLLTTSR

Sequence of GAS41 YEATS domain (amino acids 15–159) (human) (O95619 15-159): as above

Molecule | Kd [1] [µM] | Kd [2] [µM]
H3_(15–39)K27ac peptide (from UniProt P68431 16-40) | 32.7 | 
ARTKQTARKSTGGK(Ac)A (peptide, UniProt P68431 2-16, looked up) [H3_(1–15)K14ac peptide] |  | 13
